This is an account of results in article PMC10397247.

Assay [1] concerns the target T1, O5.
T1 chain: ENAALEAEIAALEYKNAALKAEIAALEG
The assay can be described thus: two-hybrid library CC0.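 Also: natural log of median RNA to DNA barcode read ratio; higher means stronger binding.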 The conditions noted are these: mean of both orientations.

Assay [2] addresses T2, O7.
T2 chain: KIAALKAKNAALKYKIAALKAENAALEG
The assay can be described thus: two-hybrid library CC0.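 Also: natural log of median RNA to DNA barcode read ratio; higher means stronger binding.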 The conditions noted are these: mean of both orientations.

The target in assay [3] is T3, O9.
T3 chain: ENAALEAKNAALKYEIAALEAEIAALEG
The assay can be described thus: two-hybrid library CC0.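 Also: natural log of median RNA to DNA barcode read ratio; higher means stronger binding.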 The conditions noted are these: mean of both orientations.

Assay [4] deals with T4, O6.
T4 chain: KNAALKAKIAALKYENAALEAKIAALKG
The assay can be described thus: two-hybrid library CC0.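 Also: natural log of median RNA to DNA barcode read ratio; higher means stronger binding.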 The conditions noted are these: mean of both orientations.

Assay [5] concerns the target T5, O8.
T5 chain: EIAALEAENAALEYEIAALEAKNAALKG
The assay can be described thus: two-hybrid library CC0.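 Also: natural log of median RNA to DNA barcode read ratio; higher means stronger binding.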 The conditions noted are these: mean of both orientations.

The target of assay [6] is T6, O4.
T6 chain: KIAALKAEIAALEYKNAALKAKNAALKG
The assay can be described thus: two-hybrid library CC0.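 Also: natural log of median RNA to DNA barcode read ratio; higher means stronger binding.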 Conditions: mean of both orientations.

The target of a further assay is T7, O3.
T7 chain: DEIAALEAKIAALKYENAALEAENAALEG
The assay can be described thus: two-hybrid library CCNG1.

In assay [7] the target is T8, O4.
T8 chain: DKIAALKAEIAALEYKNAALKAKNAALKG
The assay can be described thus: two-hybrid library CCNG1.

Assay [8] has as its target T9, O8.
T9 chain: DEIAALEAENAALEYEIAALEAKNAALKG
The assay can be described thus: two-hybrid library CCNG1.

Assay [9] deals with T10, O5.
T10 chain: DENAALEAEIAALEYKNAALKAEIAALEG
The assay can be described thus: two-hybrid library CCNG1.

The target of assay [10] is T11, O7.
T11 chain: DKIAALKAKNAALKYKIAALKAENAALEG
The assay can be described thus: two-hybrid library CCNG1.

For assay [11], the target named is T12, O6.
T12 chain: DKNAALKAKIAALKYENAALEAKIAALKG
The assay can be described thus: two-hybrid library CCNG1.

For assay [12], the target named is T13, O9.
T13 chain: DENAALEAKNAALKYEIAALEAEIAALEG
The assay can be described thus: two-hybrid library CCNG1.

The target in a further assay is T14, 4H883-bH.
T14 chain: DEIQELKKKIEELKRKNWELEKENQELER
The assay can be described thus: two-hybrid library CCNG1.

The next assay addresses T15, 4H717-bH.
T15 chain: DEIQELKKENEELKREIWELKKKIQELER
The assay can be described thus: two-hybrid library CCNG1.

Another assay has as its target T16, 4H3427-bH.
T16 chain: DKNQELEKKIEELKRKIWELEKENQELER
The assay can be described thus: two-hybrid library CCNG1.

In a further assay the target is T17, 4H967-bH.
T17 chain: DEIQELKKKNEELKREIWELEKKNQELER
The assay can be described thus: two-hybrid library CCNG1.

The next assay concerns the target T18, 4H607-bH.
T18 chain: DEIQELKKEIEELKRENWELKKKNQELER
The assay can be described thus: two-hybrid library CCNG1.

The target in the next assay is T19, 4H918-bH.
T19 chain: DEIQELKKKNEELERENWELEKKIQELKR
The assay can be described thus: two-hybrid library CCNG1.

The next assay concerns the target T20, 4H3855-bH.
T20 chain: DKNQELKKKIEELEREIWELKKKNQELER
The assay can be described thus: two-hybrid library CCNG1.

The next assay has as its target T21, 4H346-bH.
T21 chain: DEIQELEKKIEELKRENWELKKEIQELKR
The assay can be described thus: two-hybrid library CCNG1.

For the next assay, the target named is T22, 4H683-bH.
T22 chain: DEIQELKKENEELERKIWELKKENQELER
The assay can be described thus: two-hybrid library CCNG1.

In another assay the target is T23, 4H331-bH.
T23 chain: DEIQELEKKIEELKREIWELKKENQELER
The assay can be described thus: two-hybrid library CCNG1.

The next assay deals with T24, 4H908-bH.
T24 chain: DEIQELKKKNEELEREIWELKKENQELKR
The assay can be described thus: two-hybrid library CCNG1.

The target in the next assay is T25, 4H575-bH.
T25 chain: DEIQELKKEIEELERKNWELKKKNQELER
The assay can be described thus: two-hybrid library CCNG1.

A further assay addresses T26, 4H687-bH.
T26 chain: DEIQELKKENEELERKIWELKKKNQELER
The assay can be described thus: two-hybrid library CCNG1.

The target in a further assay is T27, 4H457-bH.
T27 chain: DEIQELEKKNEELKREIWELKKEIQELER
The assay can be described thus: two-hybrid library CCNG1.

Another assay addresses T28, 4H780-bH.
T28 chain: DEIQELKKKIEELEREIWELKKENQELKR
The assay can be described thus: two-hybrid library CCNG1.

The target of the next assay is T29, 4H319-bA.
T29 chain: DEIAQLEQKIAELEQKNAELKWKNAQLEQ
The assay can be described thus: two-hybrid library CCNG1.

For another assay, the target named is T30, 4H3185-bH.
T30 chain: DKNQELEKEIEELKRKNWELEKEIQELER
The assay can be described thus: two-hybrid library CCNG1.

The target of the next assay is T31, 4H4001-bH.
T31 chain: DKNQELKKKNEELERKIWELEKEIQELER
The assay can be described thus: two-hybrid library CCNG1.

In a further assay the target is T32, 4H3782-bH.
T32 chain: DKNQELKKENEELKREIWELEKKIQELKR
The assay can be described thus: two-hybrid library CCNG1.

The target in the next assay is T33, 4H3354-bH.
T33 chain: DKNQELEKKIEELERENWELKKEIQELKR
The assay can be described thus: two-hybrid library CCNG1.

In another assay the target is T34, 4H968-bH.
T34 chain: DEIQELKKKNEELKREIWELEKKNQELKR
The assay can be described thus: two-hybrid library CCNG1.

For a further assay, the target named is T35, 4H953-bH.
T35 chain: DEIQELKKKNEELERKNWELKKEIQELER
The assay can be described thus: two-hybrid library CCNG1.

For a further assay, the target named is T36, 4H797-bH.
T36 chain: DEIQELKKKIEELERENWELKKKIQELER
The assay can be described thus: two-hybrid library CCNG1.

In the next assay the target is T37, 4H568-bH.
T37 chain: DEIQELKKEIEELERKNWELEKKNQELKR
The assay can be described thus: two-hybrid library CCNG1.

The next assay deals with T38, 4H72-bH.
T38 chain: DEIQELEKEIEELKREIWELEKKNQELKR
The assay can be described thus: two-hybrid library CCNG1.

In a further assay the target is T39, 4H3112-bH.
T39 chain: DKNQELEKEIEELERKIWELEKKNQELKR
The assay can be described thus: two-hybrid library CCNG1.

For the next assay, the target named is T40, 4H454-bH.
T40 chain: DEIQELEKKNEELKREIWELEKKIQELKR
The assay can be described thus: two-hybrid library CCNG1.

In the next assay the target is T41, 4H855-bH.
T41 chain: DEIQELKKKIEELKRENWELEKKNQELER
The assay can be described thus: two-hybrid library CCNG1.

Another assay has as its target T42, 4H4073-bH.
T42 chain: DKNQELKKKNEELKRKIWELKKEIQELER
The assay can be described thus: two-hybrid library CCNG1.

The next assay addresses T43, 4H338-bH.
T43 chain: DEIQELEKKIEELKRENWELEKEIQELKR
The assay can be described thus: two-hybrid library CCNG1.

Another assay has as its target T44, 4H3926-bH.
T44 chain: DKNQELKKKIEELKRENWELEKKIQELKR
The assay can be described thus: two-hybrid library CCNG1.

In another assay the target is T45, 4H3277-bH.
T45 chain: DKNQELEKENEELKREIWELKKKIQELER
The assay can be described thus: two-hybrid library CCNG1.

A further assay deals with T46, 4H348-bH.
T46 chain: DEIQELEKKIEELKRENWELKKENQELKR
The assay can be described thus: two-hybrid library CCNG1.

The target in another assay is T47, 4H477-bH.
T47 chain: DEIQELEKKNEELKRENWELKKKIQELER
The assay can be described thus: two-hybrid library CCNG1.

Another assay deals with T48, 4H2839-bH.
T48 chain: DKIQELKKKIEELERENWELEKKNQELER
The assay can be described thus: two-hybrid library CCNG1.

The target in another assay is T49, 4H3057-bH.
T49 chain: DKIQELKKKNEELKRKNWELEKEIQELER
The assay can be described thus: two-hybrid library CCNG1.

A further assay has as its target T50, 4H492-bH.
T50 chain: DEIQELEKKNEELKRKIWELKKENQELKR
The assay can be described thus: two-hybrid library CCNG1.

Another assay concerns the target T51, 4H40-bH.
T51 chain: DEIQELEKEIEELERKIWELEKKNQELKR
The assay can be described thus: two-hybrid library CCNG1.

The next assay concerns the target T52, 4H741-bH.
T52 chain: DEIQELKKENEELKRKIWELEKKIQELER
The assay can be described thus: two-hybrid library CCNG1.

A further assay addresses T53, 4H2717-bH.
T53 chain: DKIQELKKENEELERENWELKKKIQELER
The assay can be described thus: two-hybrid library CCNG1.

A further assay addresses T54, 4H2915-bH.
T54 chain: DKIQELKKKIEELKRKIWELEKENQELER
The assay can be described thus: two-hybrid library CCNG1.

A further assay addresses T55, 4H319-bH.
T55 chain: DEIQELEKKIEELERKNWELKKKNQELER
The assay can be described thus: two-hybrid library CCNG1.

The next assay deals with T56, 4H4001-bN.
T56 chain: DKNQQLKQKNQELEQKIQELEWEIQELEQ
The assay can be described thus: two-hybrid library CCNG1.

Another assay addresses T57, 4H754-bH.
T57 chain: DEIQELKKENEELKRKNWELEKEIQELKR
The assay can be described thus: two-hybrid library CCNG1.

Turning to KIAALKAEIAALEYKNAALKAKNAALKG [O4], the interaction score with O5 [1] was -2.68; in the assay with O7 [2], -2.75; in the assay with O9 [3], -2.71; with O6 [4] it was -2.42; with O8 [5], -2.63; with O4 [6] it was -2.65.
With DEIAALEAKIAALKYENAALEAENAALEG [O3], the interaction score with O3 was -2.29; with O4 [7], 2.05; with O8 [8], -2.29; with O5 [9], -2; with O7 [10] it was -2.58; with O6 [11] it was -2.73. In the assay with O9 [12], this molecule registered an interaction score of -2.28.
In the case of DKNQELEKEIEELERKIWELEKKNQELKR [4H3112-bH], the interaction score in the assay with 4H883-bH is 0.871; with 4H717-bH it was -0.259; with 4H3427-bH, 1.07; in the assay with 4H967-bH, 1.34; with 4H607-bH, 0.768; in the assay with 4H918-bH it was 0.72. For the same molecule, the interaction score with 4H3855-bH is 0.754; in the assay with 4H346-bH it was 0.584; with 4H683-bH it was 0.204; in the assay with 4H331-bH, 0.991; with 4H908-bH it was -0.43; in the assay with 4H575-bH it was -0.872. Further, the interaction score is -0.713 with 4H687-bH; -1.29 in the assay with 4H457-bH; 0.704 with 4H780-bH; -3.07 in the assay with 4H319-bA; -0.575 in the assay with 4H3185-bH; 0.971 with 4H4001-bH. Moreover, the interaction score with 4H3782-bH was 0.0549; in the assay with 4H3354-bH, 0.156; in the assay with 4H968-bH, 1.05; in the assay with 4H953-bH, -0.641; with 4H797-bH, -0.951; in the assay with 4H568-bH, -0.443. Moreover, the interaction score with 4H72-bH was 0.428; in the assay with 4H3112-bH, 1.18; with 4H454-bH it was 0.624; in the assay with 4H855-bH, -2.78; with 4H4073-bH, 1.57; in the assay with 4H338-bH, 1.72. In the assay with 4H3926-bH, this molecule registered an interaction score of 0.42.
As for DKIQELKKENEELERENWELKKKIQELER [4H2717-bH], the interaction score with 4H3277-bH was -0.479; in the assay with 4H348-bH, -0.364; with 4H477-bH, 1.38; in the assay with 4H2839-bH it was -0.51; in the assay with 4H3057-bH it was -0.185; in the assay with 4H492-bH, -0.752. For the same molecule, the interaction score with 4H40-bH is -0.815; in the assay with 4H741-bH, -1.79; in the assay with 4H2717-bH, 1.16; in the assay with 4H2915-bH it was -0.399; in the assay with 4H319-bH it was -0.701.
Consider DKNQELEKEIEELKRKNWELEKEIQELER [4H3185-bH], for which the interaction score with 4H883-bH was -0.72; with 4H717-bH it was -0.724; in the assay with 4H3427-bH, -0.801; with 4H967-bH it was -1.56; with 4H607-bH, -0.833; with 4H918-bH, -1.09. In addition, the interaction score was -0.899 with 4H3855-bH; -0.701 with 4H331-bH; -0.797 with 4H908-bH; -0.899 with 4H687-bH; 0 with 4H4001-bN; 0.0268 in the assay with 4H3185-bH. Moreover, the interaction score in the assay with 4H3782-bH was -0.522; with 4H3354-bH, -0.583; in the assay with 4H953-bH, -1.21; with 4H797-bH, -1.22; with 4H754-bH, -1.15; with 4H568-bH it was -2.61. The interaction score with 4H72-bH is -1.26; in the assay with 4H454-bH, -1.16; with 4H338-bH, -0.56.
